Results from the supplement of paper PMC9732359.
± gives the uncertainty stated by the source.

Assay: protein stability index of a GFP-peptide fusion (yeast GPS) (PSI 1-4); higher = more stable; sorted into four equal gates, so the index is relative within each strain
How it was run: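 For each peptide, the protein stability index sums the read frequency in every gate after multiplying it by the gate number. Read frequencies came from plasmids that were PCR-amplified from each gate and Illumina-sequenced, with reads assigned to strains by barcodes. The gates were four equal bins of GFP/Cherry fluorescence ratio applied to mid-log yeast in leucine-free medium carrying a pooled library of tiled 17-residue yeast protein peptides fused downstream of GFP on a Cherry-expressing plasmid.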

| Sequence | protein stability index (doa10∆) | protein stability index (pdr5∆) | protein stability index (san1∆) | protein stability index (ubr1∆) |
| --- | --- | --- | --- | --- |
| CFCEDHCDKCSVVLTLQ [RPB3] | 3.12 ± 0.14 | 3.15 ± 0.14 | 2.42 ± 0.19 | 2.51 ± 0.17 |
| DSNSEILNFLNQEDLFE [YML103C/NUP188] | 2.79 ± 0.12 | 2.86 ± 0.089 | 2.76 ± 0.049 | 3.14 ± 0.086 |
| TTTNTDQNNATMGEETA [SNF12] | 3.3 ± 0.076 | 3.37 ± 0.11 | 3.4 ± 0.076 | 3.21 ± 0.1 |
| TPSNIRSLCEVLVYDDK [RPC34] | 1.7 ± 0.077 | 1.84 ± 0.078 | 1.26 ± 0.11 | 1.59 ± 0.086 |
| PKMQWSLQDNSAAINNE [RPN4] | 3.15 ± 0.063 | 3.2 ± 0.053 | 2.96 ± 0.048 | 3.15 ± 0.041 |
| SEISSLKGKINNEMKSL [SMC1] | 3.09 ± 0.28 | – | 2.65 ± 0.27 | 3.18 ± 0.18 |
| VMDTIQEQITLYDHWDK [SSN8] | 3.14 ± 0.12 | 2.96 ± 0.09 | 2.63 ± 0.095 | 2.82 ± 0.068 |
| INYQVDSKLLPKNIEPP [SWI3] | 2.92 ± 0.083 | 2.81 ± 0.1 | 2.58 ± 0.064 | 2.65 ± 0.066 |
| HCIDYLRKNKLGYARFI [SMC4] | 1.19 ± 0.036 | 1.21 ± 0.039 | 1.14 ± 0.091 | 1.14 ± 0.04 |
| IEKCLKASELKLALGIA [RPN2] | 2.75 ± 0.1 | 3.1 ± 0.13 | 3 ± 0.098 | 2.69 ± 0.24 |
| FLLVPSKQVQVSQQPLS [ECM29] | 1.81 ± 0.092 | 1.92 ± 0.072 | 1.42 ± 0.11 | 2.17 ± 0.043 |
| GFNMKKITTSTEDQKVT [SRP68] | 2.84 ± 0.065 | 2.67 ± 0.051 | 2.83 ± 0.074 | 2.42 ± 0.04 |
| LVREIAQDFKTDLRFQS [HHT1] | 2.55 ± 0.097 | 3 ± 0.078 | 2.65 ± 0.076 | 2.88 ± 0.099 |
| NNAKLLTFMTCNSLHIP [ESC2] | 1.71 ± 0.046 | 1.72 ± 0.052 | 1.6 ± 0.079 | 2.06 ± 0.047 |
| SEDSAVFKATSSTDEES [FAS1] | 3.03 ± 0.1 | 3.21 ± 0.11 | 2.93 ± 0.073 | 2.98 ± 0.067 |
| NRRWTQRRGPLVVYAED [RPL4A] | 2.44 ± 0.16 | 2.48 ± 0.17 | 2.12 ± 0.093 | 2.16 ± 0.1 |
| TGAGVSTSLGIPDFRSS [SIR2] | 2.19 ± 0.079 | 2.51 ± 0.082 | 2.1 ± 0.19 | 2.86 ± 0.078 |
| SASLHTRSLKYGKLRNG [RRP4] | 1.58 ± 0.075 | 2.15 ± 0.11 | 1.08 ± 0.13 | 2.82 ± 0.16 |
| SRLKALNLQFKAKVDDL [YLR335W/NUP2] | 3.12 ± 0.075 | 3.2 ± 0.091 | 3.05 ± 0.1 | 3.11 ± 0.069 |
| FRFDSIQRETLLPTNNG [GRR1] | 2.59 ± 0.047 | 2.67 ± 0.053 | 2.69 ± 0.04 | 2.92 ± 0.033 |

| Sequence | protein stability index (doa10∆) | protein stability index (pdr5∆) | protein stability index (san1∆) | protein stability index (ubr1∆) |
| --- | --- | --- | --- | --- |
| KPTSHKQLQQPKSSPLK [SIR4] | 2.87 ± 0.057 | 3 ± 0.058 | 3.04 ± 0.039 | 2.95 ± 0.032 |
| KHSVTEYIFEAHEIIKR [CDC53] | 2.32 ± 0.067 | 1.87 ± 0.049 | 2.68 ± 0.075 | 2.58 ± 0.051 |
| NVEESVSKADILLSHHR [POP5] | 3.16 ± 0.19 | – | 2.91 ± 0.086 | 3.03 ± 0.1 |
| KRGVKGVEYRLRLRISR [RPL31A] | 1.64 ± 0.12 | 1.36 ± 0.12 | – | 1.78 ± 0.19 |
| VKKPQKSKTSTGKERSK [SNM1] | 3.15 ± 0.07 | 3.39 ± 0.085 | 3.549 ± 0.035 | 3.35 ± 0.062 |
| AGGPDMTTPQNISSSQQ [DSN1] | 2.83 ± 0.044 | 3.04 ± 0.04 | 2.83 ± 0.037 | 2.93 ± 0.04 |
| SKKTSPKATSSAGAVFK [YOR098C/NUP1] | 2.7 ± 0.12 | 2.42 ± 0.086 | 2.54 ± 0.085 | 2.61 ± 0.046 |
| KSMELFYDIRSLLERHI [YJL039C/NUP192] | 2.84 ± 0.044 | 2.99 ± 0.038 | 2.91 ± 0.04 | 3.07 ± 0.046 |
| ESLRGILHVRAQYCYKN [SRP72] | 1.94 ± 0.1 | 2.36 ± 0.11 | 2.18 ± 0.22 | 2.13 ± 0.062 |
| VYKFMSLAKSSALWSSR [ECM29] | – | 1.97 ± 0.16 | 1.39 ± 0.2 | 1.74 ± 0.29 |
| LVKIDDLSANQRETMKE [SMC1] | 3.29 ± 0.083 | 3.22 ± 0.091 | 3 ± 0.11 | 3.45 ± 0.089 |
| QSSESFDDSDITKFALF [YML103C/NUP188] | 2.44 ± 0.1 | 2.23 ± 0.071 | 2.48 ± 0.083 | 2.46 ± 0.075 |
| FAAIPEQGIELEHIDSK [FAS2] | 3.17 ± 0.16 | 2.85 ± 0.21 | 3.39 ± 0.084 | 3.41 ± 0.1 |
| DSFKYEPLAPGNDNLIK [YLR335W/NUP2] | 2.61 ± 0.061 | 2.75 ± 0.045 | 2.63 ± 0.045 | 2.85 ± 0.044 |
| TTVIGIRGSDQAIPKFQ [RPN2] | – | 2.74 ± 0.23 | – | – |
| KMLMNLHKEQWQSGLKM [RPN11] | 2.14 ± 0.048 | 2.05 ± 0.04 | 2.4 ± 0.039 | 2.13 ± 0.035 |
| MVMAGSKGSFINIAQMS [RPO21] | 1.43 ± 0.054 | 1.67 ± 0.049 | 1.25 ± 0.083 | 1.42 ± 0.05 |
| LQQQTPVTIWLFEQIGI [SME1] | 1.66 ± 0.045 | 1.87 ± 0.041 | 1.64 ± 0.072 | 2 ± 0.042 |
| DLSGADIQAMCTEAGLL [RPT2] | 2.73 ± 0.12 | 3.48 ± 0.13 | 3.46 ± 0.05 | 3.42 ± 0.062 |
